Laboratory results from paper PMC4154873, “Delineation of Interfaces on Human Alpha-Defensins Critical for Human Adenovirus and Human Papillomavirus Inhibition” (PLoS Pathogens, 2014).

B1: unnamed (parent)
chain 1: ATCYCRTGRCATRESLSGVCEISGRLYRLCCR
chain 2: MKRARPSEDTFNPVYPYDTETGPPTVPFLTPPFVSPNGFQESPPGVLSLRLSEPLVTSNGMLALKMGNGLSLDEAGNLTSQNVTTVSPPLKKTKSNINLEISAPLTVTSEALTVAAAAPLMVAGNTLTMQSQAPLTVHDSKLSIATQGPLTVSEGKLALQTSGPLTTTDSSTLTITASPPLTTATGSLGIDLKEPIYTQNGKLGLKYGAPLHVTDDLNTLTVATGPGVTINNTSLQTKVTGALGFDSQGNMQLNVAGGLRIDSQNRRLILDVSYPFDAQNQLNLRLGQGPLFINSAHNLDINYNKGLYLFTASNNSKKLEVNLSTAKGLMFDATAIAINAGDGLEFGSPNAPNTNPLKTKIGHGLEFDSNKAMVPKLGTGLSFDSTGAITVGNKNNDKLTLWTTPAPSPNCRLNAEKDAKLTLVLTKCGSQILATVSVLAVKGSLAPISGTVQSAHLIIRFDENGVLLNNSFLDPEYWNFRNGDLTEGTAYTNAVGFMPNLSAYPKSHGKTAKSNIVSQVYLNGDKTKPVTLTITLNGTQETGDTTPSAYSMSFSWDWSGHNYINEIFATSSYTFSYIAQE
chain 3: MRRAAMYEEGPPPSYESVVSAAPVAAALGSPFDAPLDPPFVPPRYLRPTGGRNSIRYSELAPLFDTTRVYLVDNKSTDVASLNYQNDHSNFLTTVIQNNDYSPGEASTQTINLDDRSHWGGDLKTILHTNMPNVNEFMFTNKFKARVMVSRLPTKDNQVELKYEWVEFTLPEGNYSETMTIDLMNNAIVEHYLKVGRQNGVLESDIGVKFDTRNFRLGFDPVTGLVMPGVYTNEAFHPDIILLPGCGVDFTHSRLSNLLGIRKRQPFQEGFRITYDDLEGGNIPALLDVDAYQASLKDDTEQGGGGAGGSNSSGSGAEENSNAAAAAMQPVEDMNDHAIRGDTFATRAEEKRAEAEAAAEAAAPAAQPEVEKPQKKPVIKPLTEDSKKRSYNLISNDSTFTQYRSWYLAYNYGDPQTGIRSWTLLCTPDVTCGSEQVYWSLPDMMQDPVTFRSTRQISNFPVVGAELLPVHSKSFYNDQAVYSQLIRQFTSLTHVFNRFPENQILARPPAPTITTVSENVPALTDHGTLPLRNSIGGVQRVTITDARRRTCPYVYKALGIVSPRVLSSRTF

Variants of: B1
Assay: SPR
Settings: with partner chain of the complex shown, read off a plot; for Kd / screen value: steady-state binding curves at 80 sec of association time, 3-fold dilution series from 3 µM to 111 nM
[1] = defensin at 333 nM, immobilized rPenton (2115 RU), peak of sensorgram at end of association (about 180 sec)

Variant | response [1] [RU] | Kd (immobilized rPenton (2115 RU)) [nM] | screen value (immobilized rPenton (2115 RU)) [RU] | response (steady-state response at 80 sec of association time, point at 3 µM defensin) [RU]
chain 1 ATCYCRAGRCATRESLSGVCEISGRLYRLCCR [chain 1 T7A] | 690 | 1300 | 2100 | 
chain 1 ATCYCRTGRCATRESLSGVCEASGRLYRLCCR [chain 1 I22A] | 490 | 1500 | 1600 | 
chain 1 ATCYCRTGRCAARESLSGVCEISGRLYRLCCR [chain 1 T12A] | 630 | 1500 | 2200 | 
chain 1 ATCYCRTGRCATRESLSGVCEISGRLYALCCR [chain 1 R28A] | 340 | 1300 | 1100 | 
chain 1 ATCYCRTGRCATRESLSGVCAISGRLYRLCCR [chain 1 E21A] | 480 | 1600 | 1600 | 
chain 1 ATCYCRTGRCATRESLSGVCEISGRAYRLCCR [chain 1 L26A] | 200 | 1300 | 700 | 520
chain 1 ATCYCRTGRCATRESLSGACEISGRLYRLCCR [chain 1 V19A] | 260 |  | 1200 | 
